Changes are numbered by the printed parent chain.

B1: anti-TrkA antibody Ab386 (antibody, V domains shown)
VH: QVQLQESGPGLVKPSGTLSLTCAVSGGSISSSNWWTWVRQPPGKGLEWIGEIYHRGNRNYNPSLKSRVTISVDKSKNQFSLKLSSVTAADTAVYYCARAPWFDYWGQGTLV
VL: SSELTQDPAVSVALGQTVRITCQGDSLRSYYASWYQQKPGQAPVLVIYGKNNRPSGIPDRFSGSSSGNTASLTITGAQAEDEADYYCNSQDSSGNHLIFGGGTKLTVLG
B2: anti-TrkA antibody Ab49 (antibody, V domains shown)
VH: B1 VH with Q1E
VL: SSELTQDPAVSVALGQTVRITCQGDSLRSYYASWYQQKPGQAPVLVIYGKNNRPSGIPDRFSGSSSGNTASLTITGAQAEDEADYYCASQASSGNHLIFGGGTKLT
B3: anti-TrkA antibody Ab147 (antibody, V domains shown)
VH: B1 VH with Q1E
VL: B2 VL with D25L, N51G, A88N, A91D
B4: anti-TrkA antibody Ab96 (antibody, V domains shown)
VH: B1 VH with Q1E
VL: B2 VL with D25G, N52K, A88N
B5: anti-TrkA antibody Ab67 (antibody, V domains shown)
VH: B1 VH with Q1E
VL: B2 VL with S26A, A88N
B6: anti-TrkA antibody Ab124 (antibody, V domains shown)
VH: B1 VH with Q1E
VL: B2 VL with D25A, N51G, A88N, A91D
B7: anti-TrkA antibody Ab101 (antibody, V domains shown)
VH: B1 VH with Q1E
VL: B2 VL with D25G, N51G, A88N, A91D
B8: anti-TrkA antibody Ab119 (antibody, V domains shown)
VH: B1 VH with Q1E
VL: B2 VL with D25A, N52K, A88N
B9: anti-TrkA antibody Ab82 (as in Tables 4 and 6) (antibody, V domains shown)
VH: B1 VH
VL: B2 VL with S26A, N51G
B10: anti-TrkA antibody Ab79 (antibody, V domains shown)
VH: B1 VH with Q1E
VL: B2 VL with S26A, N51G, A88N
B11: anti-TrkA antibody Ab142 (antibody, V domains shown)
VH: B1 VH with Q1E
VL: B2 VL with D25L, N52K, A88N
B12: anti-TrkA antibody Ab122 (antibody, V domains shown)
VH: B1 VH with Q1E
VL: B2 VL with D25A, N52K
B13: anti-TrkA antibody Ab70 (antibody, V domains shown)
VH: B1 VH with Q1E
VL: B2 VL with S26A
B14: anti-TrkA antibody Ab3 (antibody, V domains shown)
VH: B1 VH with I29V, S32G, R58T, S84N, Y95F, W101F
VL: B1 VL with Y48F, D91V, S93G
B15: anti-TrkA antibody Ab76 (antibody, V domains shown)
VH: B1 VH with Q1E
VL: B2 VL with S26A, N52K
B16: anti-TrkA antibody Ab145 (antibody, V domains shown)
VH: B1 VH with Q1E
VL: B2 VL with D25L, N52K
B17: anti-TrkA antibody Ab476 (antibody, V domains shown)
VH: B1 VH with W101F, Y104R
VL: B1 VL with Y48H
B18: anti-TrkA antibody Ab676 (antibody, V domains shown)
VH: B1 VH with I29V, S32G, R58T, S84N, Y95F, W101F
VL: B1 VL with Y48H, D91V, S92Y, S93G
B19: anti-TrkA antibody Ab523 (antibody, V domains shown)
VH: B1 VH with I29V, S32G, S84N, Y95F, W101F
VL: B1 VL with G67W
B20: anti-TrkA antibody Ab449 (antibody, V domains shown)
VH: B1 VH with Y104R
VL: B1 VL

In the first test the target is native rat TrkA on PC12 cells (rat, UniProt P35739 33-799). Nature of the test: cell-based or functional assay.
Sequence of native rat TrkA on PC12 cells (P35739 33-799): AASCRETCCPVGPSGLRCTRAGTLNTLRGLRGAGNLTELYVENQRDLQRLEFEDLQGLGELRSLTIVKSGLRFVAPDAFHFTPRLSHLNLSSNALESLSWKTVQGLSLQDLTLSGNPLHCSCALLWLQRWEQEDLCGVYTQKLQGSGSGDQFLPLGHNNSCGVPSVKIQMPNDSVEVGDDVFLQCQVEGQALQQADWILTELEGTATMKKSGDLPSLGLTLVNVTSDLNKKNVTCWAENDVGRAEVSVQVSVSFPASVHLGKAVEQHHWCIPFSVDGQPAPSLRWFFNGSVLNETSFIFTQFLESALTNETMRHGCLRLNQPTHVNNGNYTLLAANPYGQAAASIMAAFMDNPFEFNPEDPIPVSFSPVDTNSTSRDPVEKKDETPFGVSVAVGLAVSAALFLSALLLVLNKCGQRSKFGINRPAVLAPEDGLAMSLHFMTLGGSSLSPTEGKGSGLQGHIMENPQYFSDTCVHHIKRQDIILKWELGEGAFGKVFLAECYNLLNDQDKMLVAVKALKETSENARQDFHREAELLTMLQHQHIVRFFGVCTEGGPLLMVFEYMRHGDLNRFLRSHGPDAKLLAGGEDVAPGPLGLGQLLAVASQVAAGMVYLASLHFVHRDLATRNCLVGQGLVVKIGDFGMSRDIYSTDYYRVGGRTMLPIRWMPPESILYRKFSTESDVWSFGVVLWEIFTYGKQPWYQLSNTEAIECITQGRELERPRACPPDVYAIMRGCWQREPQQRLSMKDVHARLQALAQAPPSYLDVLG
“mouse β-NGF (from UniProt P01139 122-241) (ligand)” registered an Akt phosphorylation in PC12 cells, EC50 of 0.025 nM; an Erk phosphorylation in PC12 cells, EC50 of 0.025 nM; a TrkA receptor phosphorylation in PC12 cells (AlphaLISA p-TrkA Tyr674/675), EC50 of 0.129 nM; a neurite outgrowth in PC12 cells at 138 hours, EC50 of 0.0078 nM.

In the case of B1, the “Akt pathway activation (pEC50)” value was 9 pEC50, the “Erk pathway activation (pEC50)” value came to 9.23 pEC50 and the “Neurite outgrowth (pEC50)” value came out at 10.1 pEC50.

As to B2, the “Akt pathway activation (pEC50)” value was 9.12 pEC50, the “Erk pathway activation (pEC50)” value was 9.29 pEC50 and the “Neurite outgrowth (pEC50)” value was 10.1 pEC50.

As to B3, the “Akt pathway activation (pEC50)” value turned out to be 9.25 pEC50, the “Erk pathway activation (pEC50)” value came out at 9.11 pEC50 and the “Neurite outgrowth (pEC50)” value was 10.1 pEC50.

For the molecule B4, the “Akt pathway activation (pEC50)” value was determined as 9.53 pEC50, the “Erk pathway activation (pEC50)” value was 10.2 pEC50 and the “Neurite outgrowth (pEC50)” value stood at 9.81 pEC50.

Consider B5, for which the “Akt pathway activation (pEC50)” value worked out at 9.07 pEC50, the “Erk pathway activation (pEC50)” value was 9.28 pEC50 and the “Neurite outgrowth (pEC50)” value was 9.96 pEC50.

Consider B6, for which the “Akt pathway activation (pEC50)” value worked out at 9.03 pEC50, the “Erk pathway activation (pEC50)” value was 9.23 pEC50 and the “Neurite outgrowth (pEC50)” value stood at 10.1 pEC50.

As to B7, the “Akt pathway activation (pEC50)” value turned out to be 9.2 pEC50, the “Erk pathway activation (pEC50)” value came to 9.45 pEC50 and the “Neurite outgrowth (pEC50)” value was found to be 10 pEC50.

For the molecule B8, the “Akt pathway activation (pEC50)” value stood at 9.25 pEC50, the “Erk pathway activation (pEC50)” value was 10.2 pEC50 and the “Neurite outgrowth (pEC50)” value is 10.2 pEC50.

Turning to B9, the “Akt pathway activation (pEC50)” value came out at 9.09 pEC50, the “Erk pathway activation (pEC50)” value amounted to 9.14 pEC50 and the “Neurite outgrowth (pEC50)” value is 9.99 pEC50.

Regarding B10, the “Akt pathway activation (pEC50)” value amounted to 8.97 pEC50, the “Erk pathway activation (pEC50)” value was 9.21 pEC50 and the “Neurite outgrowth (pEC50)” value is 10.2 pEC50.

Consider B11, for which the “Akt pathway activation (pEC50)” value is 9.53 pEC50, the “Erk pathway activation (pEC50)” value is 9.54 pEC50 and the “Neurite outgrowth (pEC50)” value was found to be 9.97 pEC50.

Regarding B12, the “Akt pathway activation (pEC50)” value stood at 9.5 pEC50, the “Erk pathway activation (pEC50)” value turned out to be 9.88 pEC50 and the “Neurite outgrowth (pEC50)” value was 9.6 pEC50.

Take B13: the “Akt pathway activation (pEC50)” value turned out to be 9.05 pEC50, the “Erk pathway activation (pEC50)” value was determined as 9.21 pEC50 and the “Neurite outgrowth (pEC50)” value worked out at 10 pEC50.

Consider B14, for which the “Akt pathway activation (pEC50)” value amounted to 8.67 pEC50, the “Erk pathway activation (pEC50)” value came out at 8.86 pEC50 and the “Neurite outgrowth (pEC50)” value was determined as 9.79 pEC50.

Take B15: the “Akt pathway activation (pEC50)” value came to 9.57 pEC50, the “Erk pathway activation (pEC50)” value came out at 9.78 pEC50 and the “Neurite outgrowth (pEC50)” value worked out at 9.95 pEC50.

For B16, the “Akt pathway activation (pEC50)” value worked out at 9.68 pEC50, the “Erk pathway activation (pEC50)” value came out at 9.89 pEC50 and the “Neurite outgrowth (pEC50)” value was 10.1 pEC50.

The target of another test is T1, recombinant human TrkA (human, UniProt P04629 33-423, limits assumed).
T1 construct: also called hTrkA
T1 sequence (P04629 33-423 limits assumed): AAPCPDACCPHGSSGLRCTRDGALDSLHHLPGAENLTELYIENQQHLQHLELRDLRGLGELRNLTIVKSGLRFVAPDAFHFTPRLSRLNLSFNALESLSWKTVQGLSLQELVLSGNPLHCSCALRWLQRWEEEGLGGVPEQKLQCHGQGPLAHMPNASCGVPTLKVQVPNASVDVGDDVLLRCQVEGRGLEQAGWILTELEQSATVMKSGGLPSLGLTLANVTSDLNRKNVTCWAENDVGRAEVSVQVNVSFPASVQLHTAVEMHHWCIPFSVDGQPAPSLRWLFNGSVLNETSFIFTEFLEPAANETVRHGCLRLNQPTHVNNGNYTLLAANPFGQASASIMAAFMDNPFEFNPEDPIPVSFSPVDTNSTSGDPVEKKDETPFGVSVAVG
In words: SPR, antibody captured on protein A chip, TrkA as analyte, single concentration, 1:1 model. (In general: In SPR one partner is held on a chip, and binding of the other changes the refractive index at the surface.)
For the molecule B1, the dissociation constant Kd was 1.15 nM, the dissociation rate constant (koff) worked out at 0.000305 s⁻¹ and the on-rate constant (kon) is 266000 M⁻¹ s⁻¹.

Consider B2, for which the Kd is 1.78 nM, the koff is 0.000472 s⁻¹ and the kon was determined as 264000 M⁻¹ s⁻¹.

In the case of B3, the Kd was determined as 1.19 nM, the koff was determined as 0.000314 s⁻¹ and the kon is 264000 M⁻¹ s⁻¹.

Regarding B4, the equilibrium dissociation constant (Kd) was 1.23 nM and the koff is 0.000277 s⁻¹.

B17: the Kd is 1.25 nM, the off-rate (koff) was determined as 0.0003 s⁻¹ and the association rate constant (kon) was 240000 M⁻¹ s⁻¹.

On to B18, for which the Kd was determined as 0.815 nM, the dissociation rate constant (koff) was found to be 0.000216 s⁻¹ and the on-rate (kon) was 265000 M⁻¹ s⁻¹.

Regarding B5, the Kd was determined as 1.91 nM, the koff amounted to 0.000477 s⁻¹ and the kon was found to be 250000 M⁻¹ s⁻¹.

For B6, the Kd came to 1.21 nM, the off-rate (koff) turned out to be 0.000327 s⁻¹ and the kon amounted to 271000 M⁻¹ s⁻¹.

With B19, the equilibrium dissociation constant (Kd) is 1.3 nM, the koff is 0.000258 s⁻¹ and the kon was 199000 M⁻¹ s⁻¹.

Take B7: the Kd was determined as 1.29 nM, the off-rate constant (koff) was determined as 0.000352 s⁻¹ and the kon came to 273000 M⁻¹ s⁻¹.

As to B8, the Kd was found to be 1.11 nM and the off-rate (koff) is 0.000265 s⁻¹.

Regarding B9, the dissociation constant (Kd) stood at 1.75 nM, the koff came out at 0.000443 s⁻¹ and the on-rate (kon) was 253000 M⁻¹ s⁻¹.

B10: the Kd came out at 1.67 nM, the koff is 0.000421 s⁻¹ and the on-rate constant (kon) stood at 252000 M⁻¹ s⁻¹.

In the case of B11, the Kd is 0.999 nM and the off-rate (koff) stood at 0.000254 s⁻¹.

Regarding B12, the Kd is 1.45 nM and the koff was found to be 0.000294 s⁻¹.

As for B13, the dissociation constant Kd worked out at 1.63 nM, the koff came out at 0.000432 s⁻¹ and the kon is 265000 M⁻¹ s⁻¹.

For B14, the Kd is 2.1 nM, the off-rate (koff) stood at 0.000614 s⁻¹ and the on-rate (kon) worked out at 293000 M⁻¹ s⁻¹.

In the case of B20, the Kd worked out at 0.875 nM, the off-rate constant (koff) amounted to 0.000244 s⁻¹ and the kon turned out to be 279000 M⁻¹ s⁻¹.

Regarding B15, the dissociation constant (Kd) was found to be 0.943 nM and the off-rate (koff) was determined as 0.000211 s⁻¹.

For B16, the Kd turned out to be 1.5 nM and the dissociation rate constant (koff) was 0.000299 s⁻¹.

Usually Kd stands for the free concentration of one partner at which half of the binding sites on the other are occupied at equilibrium, for simple one-to-one binding. Usually koff stands for the rate constant with which the complex falls apart. A word on the kon: it is a measure of how fast the partners come together.

(Values after patent US20250122291A1 (CEPHALON, published 2025).)
